Assay results from patent US20190142971A1, “FORMULATION AND DELIVERY OF MODIFIED NUCLEOSIDE, NUCLEOTIDE, AND NUCLEIC ACID COMPOSITIONS” (ModernaTX, Inc., priority 2013, published 2019).

Key:
Format in all cases: in vivo
mice [1] = experiment: Example 65: G-CSF/EPO mRNA in saline in mice, serum protein at 13 hours (Table 97); settings: G-CSF group; 100 ug, 100 μl/mouse, F. buffer, 13 hours after injection
Description: The mice were bled at 13 hours after the injection to determine the concentration of the human polypeptide in serum in pg/mL. (G-CSF groups measured human G-CSF in mouse serum and EPO groups measured human EPO in mouse serum).

[2] = tested on: non-human primates (cynomolgus monkey); experiment: Example 22: NHP serum chemistry ALT and AST (Tables 45, 46)
[3] = tested on: non-human primates (cynomolgus monkey); experiment: Example 22: LNP IV in non-human primates, serum G-CSF/EPO ELISA (Tables 38, 39)
Description: LNP formulations, shown in Table 33 (above), were administered to non-human primates (NHP) (cynomolgus monkey) (n=2) as intravenous injection (IV). The NHP were administered a single modified mRNA IV dose of 0.5 mg/kg, 0.05 mg/kg or 0.005 mg/kg of G-CSF or EPO in a dose volume of 0.5 mL/kg. The NHPs were bled before dosing with the modified mRNA LNP formulations to determine protein expression in the serum and a baseline complete blood count. After administration with the G-CSF modified mRNA formulation the NHP were bled at 8, 24, 48 and 72 hours to determined protein expression. After administration with the EPO modified mRNA formulation the NHP were bled at 8, 24, 48, 72 hours and 7 days to determined protein expression.
Samples collected from the NHPs after they were administered with G-CSF or EPO modified mRNA formulations were analyzed by ELISA to determine protein expression. Neutrophil and reticulocyte count was also determined pre-dose, 24 hours, 3 days, 7 days, 14 days and 18 days after administration of the modified G-CSF or EPO formulation.

mice [4] = experiment: Example 18: time course LNP IV in mice, serum EPO/G-CSF ELISA (Table 35); settings: for EPO / G-CSF Serum Concentration: mice, LNP IV
Description: Formulations, listed in Table 33, were characterized by particle size, zeta potential, and encapsulation.
LNP formulations, shown in Table 33 (above), were administered to mice (n=5) intravenously (IV) at a single modified mRNA dose of 0.5, 0.05 or 0.005 mg/kg. The mice were bled at 8 hours, 24 hours, 72 hours and 6 days after they were administered with G-CSF or EPO modified mRNA formulations to determine protein expression using ELISA.

mice [5] = experiment: Example 42A: G-CSF/EPO mRNA in buffer IM in mice, serum protein at 13 hours (Table 67); settings: G-CSF group: human G-CSF in mouse serum, IM 100 ug
Description: The mice were bled at 13 hours after the injection to determine the concentration of the human polypeptide in serum in pg/mL (G-CSF groups measured human G-CSF in mouse serum and EPO groups measured human EPO in mouse serum).

[6] = 0.005 mg/kg, 2 days, Female NHP
[7] = 0.005 mg/kg, 4 days, Female NHP
[8] = 0.005 mg/kg, 7 days, Female NHP
[9] = 0.005 mg/kg, 14 days, Female NHP
[10] = 0.005 mg/kg, Pre-dose, Female NHP
[11] = 0.005 mg/kg, Pre-dose, Male NHP
[12] = 0.05 mg/kg, 14 days, Female NHP
[13] = 0.05 mg/kg, Pre-dose, Female NHP
[14] = 0.5 mg/kg, Pre-dose, Female NHP

B1: G-CSF: modified mRNA encoding human G-CSF, SEQ ID NO: 4, Cap1, fully modified with 5-methylcytosine and pseudouridine; LNP-formulated in Examples 16-22 (nucleic acid)
chain: GGGAAAUAAGAGAGAAAAGAAGAGUAAGAAGAAAUAUAAGAGCCACCAUGGCCGGUCCCGCGACCCAAAGCCCCAUGAAACUUAUGGCCCUGCAGUUGCUGCUUUGGCACUCGGCCCUCUGGACAGUCCAAGAAGCGACUCCUCUCGGACCUGCCUCAUCGUUGCCGCAGUCAUUCCUUUUGAAGUGUCUGGAGCAGGUGCGAAAGAUUCAGGGCGAUGGAGCCGCACUCCAAGAGAAGCUCUGCGCGACAUACAAACUUUGCCAUCCCGAGGAGCUCGUACUGCUCGGGCACAGCUUGGGGAUUCCCUGGGCUCCUCUCUCGUCCUGUCCGUCGCAGGCUUUGCAGUUGGCAGGGUGCCUUUCCCAGCUCCACUCCGGUUUGUUCUUGUAUCAGGGACUGCUGCAAGCCCUUGAGGGAAUCUCGCCAGAAUUGGGCCCGACGCUGGACACGUUGCAGCUCGACGUGGCGGAUUUCGCAACAACCAUCUGGCAGCAGAUGGAGGAACUGGGGAUGGCACCCGCGCUGCAGCCCACGCAGGGGGCAAUGCCGGCCUUUGCGUCCGCGUUUCAGCGCAGGGCGGGUGGAGUCCUCGUAGCGAGCCACCUUCAAUCAUUUUUGGAAGUCUCGUACCGGGUGCUGAGACAUCUUGCGCAGCCGUGAAGCGCUGCCUUCUGCGGGGCUUGCCUUCUGGCCAUGCCCUUCUUCUCUCCCUUGCACCUGUACCUCUUGGUCUUUGAAUAAAGCCUGAGUAGGAAG
modifications: Cap1, 5-methylcytosine, pseudouridine
Average Protein Product, serum (human G-CSF) (mice [1]): 45 pg/mL
ALT [2, 6]: 32 U/L
AST [2, 6]: 34 U/L
ALT ([2]; 0.005 mg/kg, 2 days, Male NHP): 39 U/L
AST ([2]; 0.005 mg/kg, 2 days, Male NHP): 70 U/L
ALT [2, 7]: 58 U/L
AST [2, 7]: 36 U/L
ALT ([2]; 0.005 mg/kg, 4 days, Male NHP): 48 U/L
AST ([2]; 0.005 mg/kg, 4 days, Male NHP): 39 U/L
ALT [2, 8]: 55 U/L
AST [2, 8]: 31 U/L
ALT ([2]; 0.005 mg/kg, 7 days, Male NHP): 29 U/L
AST ([2]; 0.005 mg/kg, 7 days, Male NHP): 28 U/L
ALT [2, 9]: 46 U/L
AST [2, 9]: 20 U/L
ALT ([2]; 0.005 mg/kg, 14 days, Male NHP): 44 U/L
AST ([2]; 0.005 mg/kg, 14 days, Male NHP): 39 U/L
ALT [2, 10]: 51 U/L
AST [2, 10]: 54 U/L
ALT [2, 11]: 43 U/L
AST [2, 11]: 35 U/L
ALT ([2]; 0.05 mg/kg, 2 days, Female NHP): 39 U/L
AST ([2]; 0.05 mg/kg, 2 days, Female NHP): 34 U/L
ALT ([2]; 0.05 mg/kg, 2 days, Male NHP): 82 U/L
AST ([2]; 0.05 mg/kg, 2 days, Male NHP): 95 U/L
ALT ([2]; 0.05 mg/kg, 4 days, Female NHP): 56 U/L
AST ([2]; 0.05 mg/kg, 4 days, Female NHP): 42 U/L
ALT ([2]; 0.05 mg/kg, 4 days, Male NHP): 88 U/L
AST ([2]; 0.05 mg/kg, 4 days, Male NHP): 69 U/L
ALT ([2]; 0.05 mg/kg, 7 days, Female NHP): 73 U/L
AST ([2]; 0.05 mg/kg, 7 days, Female NHP): 52 U/L
ALT ([2]; 0.05 mg/kg, 7 days, Male NHP): 73 U/L
AST ([2]; 0.05 mg/kg, 7 days, Male NHP): 62 U/L
ALT [2, 12]: 31 U/L
AST [2, 12]: 20 U/L
ALT ([2]; 0.05 mg/kg, 14 days, Male NHP): 50 U/L
AST ([2]; 0.05 mg/kg, 14 days, Male NHP): 59 U/L
ALT [2, 13]: 53 U/L
AST [2, 13]: 33 U/L
ALT ([2]; 0.05 mg/kg, Pre-dose, Male NHP): 58 U/L
AST ([2]; 0.05 mg/kg, Pre-dose, Male NHP): 99 U/L
ALT ([2]; 0.5 mg/kg, 2 days, Female NHP): 209 U/L
AST ([2]; 0.5 mg/kg, 2 days, Female NHP): 294 U/L
ALT ([2]; 0.5 mg/kg, 2 days, Male NHP): 63 U/L
AST ([2]; 0.5 mg/kg, 2 days, Male NHP): 196 U/L
ALT ([2]; 0.5 mg/kg, 4 days, Female NHP): 98 U/L
AST ([2]; 0.5 mg/kg, 4 days, Female NHP): 63 U/L
ALT ([2]; 0.5 mg/kg, 4 days, Male NHP): 70 U/L
AST ([2]; 0.5 mg/kg, 4 days, Male NHP): 67 U/L
ALT ([2]; 0.5 mg/kg, 7 days, Female NHP): 149 U/L
AST ([2]; 0.5 mg/kg, 7 days, Female NHP): 68 U/L
ALT ([2]; 0.5 mg/kg, 7 days, Male NHP): 41 U/L
AST ([2]; 0.5 mg/kg, 7 days, Male NHP): 53 U/L
ALT ([2]; 0.5 mg/kg, 14 days, Female NHP): 145 U/L
AST ([2]; 0.5 mg/kg, 14 days, Female NHP): 67 U/L
ALT ([2]; 0.5 mg/kg, 14 days, Male NHP): 43 U/L
AST ([2]; 0.5 mg/kg, 14 days, Male NHP): 47 U/L
ALT [2, 14]: 216 U/L
AST [2, 14]: 47 U/L
ALT ([2]; 0.5 mg/kg, Pre-dose, Male NHP): 29 U/L
AST ([2]; 0.5 mg/kg, Pre-dose, Male NHP): 32 U/L
Female NHP Serum G-CSF / EPO Concentration ([3]; 0.005 mg/kg IV, 8 hours): 559 pg/mL
Male NHP Serum G-CSF / EPO Concentration ([3]; 0.005 mg/kg IV, 8 hours): 700 pg/mL
Female NHP Serum G-CSF / EPO Concentration ([3]; 0.005 mg/kg IV, 24 hours): 155 pg/mL
Male NHP Serum G-CSF / EPO Concentration ([3]; 0.005 mg/kg IV, 24 hours): <39 pg/mL
Female NHP Serum G-CSF / EPO Concentration ([3]; 0.005 mg/kg IV, 48 hours): <39 pg/mL
Male NHP Serum G-CSF / EPO Concentration ([3]; 0.005 mg/kg IV, 48 hours): <39 pg/mL
Female NHP Serum G-CSF / EPO Concentration ([3]; 0.005 mg/kg IV, 72 hours): <39 pg/mL
Male NHP Serum G-CSF / EPO Concentration ([3]; 0.005 mg/kg IV, 72 hours): <39 pg/mL
Female NHP Serum G-CSF / EPO Concentration ([3]; 0.005 mg/kg IV, Pre-bleed): <39 pg/mL
Male NHP Serum G-CSF / EPO Concentration ([3]; 0.005 mg/kg IV, Pre-bleed): <39 pg/mL
Female NHP Serum G-CSF / EPO Concentration ([3]; 0.05 mg/kg IV, 8 hours): 3,289 pg/ml
Male NHP Serum G-CSF / EPO Concentration ([3]; 0.05 mg/kg IV, 8 hours): 1,722 pg/ml
Female NHP Serum G-CSF / EPO Concentration ([3]; 0.05 mg/kg IV, 24 hours): 722 pg/mL
Male NHP Serum G-CSF / EPO Concentration ([3]; 0.05 mg/kg IV, 24 hours): 307 pg/mL
Female NHP Serum G-CSF / EPO Concentration ([3]; 0.05 mg/kg IV, 48 hours): <39 pg/mL
Male NHP Serum G-CSF / EPO Concentration ([3]; 0.05 mg/kg IV, 48 hours): <39 pg/mL
Female NHP Serum G-CSF / EPO Concentration ([3]; 0.05 mg/kg IV, 72 hours): <39 pg/mL
Male NHP Serum G-CSF / EPO Concentration ([3]; 0.05 mg/kg IV, 72 hours): <39 pg/mL
Female NHP Serum G-CSF / EPO Concentration ([3]; 0.05 mg/kg IV, Pre-bleed): <39 pg/mL
Male NHP Serum G-CSF / EPO Concentration ([3]; 0.05 mg/kg IV, Pre-bleed): <39 pg/mL
Female NHP Serum G-CSF / EPO Concentration ([3]; 0.5 mg/kg IV, 8 hours): 43,525 pg/ml
Male NHP Serum G-CSF / EPO Concentration ([3]; 0.5 mg/kg IV, 8 hours): 43,594 pg/ml
Female NHP Serum G-CSF / EPO Concentration ([3]; 0.5 mg/kg IV, 24 hours): 11,374 pg/ml
Male NHP Serum G-CSF / EPO Concentration ([3]; 0.5 mg/kg IV, 24 hours): 3,628 pg/ml
Female NHP Serum G-CSF / EPO Concentration ([3]; 0.5 mg/kg IV, 48 hours): 1,100 pg/ml
Male NHP Serum G-CSF / EPO Concentration ([3]; 0.5 mg/kg IV, 48 hours): 833 pg/mL
Female NHP Serum G-CSF / EPO Concentration ([3]; 0.5 mg/kg IV, 72 hours): <39 pg/mL
Male NHP Serum G-CSF / EPO Concentration ([3]; 0.5 mg/kg IV, 72 hours): 306 pg/mL
Female NHP Serum G-CSF / EPO Concentration ([3]; 0.5 mg/kg IV, Pre-bleed): <39 pg/mL
Male NHP Serum G-CSF / EPO Concentration ([3]; 0.5 mg/kg IV, Pre-bleed): <39 pg/mL
protein expression not detected beyond ([3]; NHP IV): ≤ 72 h
protein expression detectable out to (mice [4]; mice IV, 0.005 mg/kg and 0.05 mg/kg): 72 h
EPO / G-CSF Serum Concentration (mice [4]; 0.005 mg/kg, 8 hours): 11,550.6 pg/ml
EPO / G-CSF Serum Concentration (mice [4]; 0.005 mg/kg, 24 hours): 5,068.9 pg/ml
EPO / G-CSF Serum Concentration (mice [4]; 0.05 mg/kg, 8 hours): 462,312.5 pg/ml
EPO / G-CSF Serum Concentration (mice [4]; 0.05 mg/kg, 24 hours): 80,903.8 pg/ml
EPO / G-CSF Serum Concentration (mice [4]; 0.5 mg/kg, 8 hours): >1,250,000 pg/ml
EPO / G-CSF Serum Concentration (mice [4]; 0.5 mg/kg, 24 hours): 495,812.5 pg/ml
EPO / G-CSF Serum Concentration (mice [4]; 0.5 mg/kg, 72 hours): 1,325.6 pg/ml
Average Protein Product, serum (mice [5]): 19.8 pg/mL
